According to patent publication US20090068224A1, “METHOD TO IDENTIFY POLYPEPTIDE TOLL-LIKE RECEPTOR (TLR) LIGANDS” (VAXINNATE CORPORATION, priority 2005, published 2009):

How the values were obtained:
TLR2 [1] = molecular target: T1, TLR2 (Homo sapiens, UniProt O60603); test: NF-κB-dependent luciferase reporter assay, 293 vs 293.hTLR2 cells; assay type: cell-based; conditions: synthetic peptide on parental 293 and 293.hTLR2 cells, four to five hours at 37° C.
Procedure: NF-κB-dependent luciferase reporter assay: Parental 293 cells and 293.hTLR2 cells (see Example 1, above) were incubated with an aliquot of test peptide four to five hours at 37° C. NF-κB-dependent luciferase activity was measured using the Steady-Glo Luciferase Assay System by Promega (E2510), following the manufacturer's instructions. Luminescence was measured on a microplate luminometer (FARCyte, Amersham) and expressed as relative luminescence units (RLU) after subtracting the background reading obtained by exposing cells to the DMEM medium alone.
The biological activity of the TLR2-binding peptides isolated by the screening method was confirmed using the isolated peptides in an NF-κB-dependent reporter gene assay. For this assay, a synthetic monomer of the DPDSG motif (SEQ ID NO: 5), or a concatemerized copy (DPDSG)5, was incubated on parental HEK293 cells containing an NF-κB-dependent luciferase reporter construct (293) and on TLR2-overexpressing HEK293 cells containing an NF-κB-dependent luciferase reporter construct (293.hTLR2, see Example 1, above). Luciferase activity was then measured. […] Thus, the TLR2-binding peptides identified by the screening assay are functional peptide TLR2 ligands.
Target sequence in this assay (O60603 21-784): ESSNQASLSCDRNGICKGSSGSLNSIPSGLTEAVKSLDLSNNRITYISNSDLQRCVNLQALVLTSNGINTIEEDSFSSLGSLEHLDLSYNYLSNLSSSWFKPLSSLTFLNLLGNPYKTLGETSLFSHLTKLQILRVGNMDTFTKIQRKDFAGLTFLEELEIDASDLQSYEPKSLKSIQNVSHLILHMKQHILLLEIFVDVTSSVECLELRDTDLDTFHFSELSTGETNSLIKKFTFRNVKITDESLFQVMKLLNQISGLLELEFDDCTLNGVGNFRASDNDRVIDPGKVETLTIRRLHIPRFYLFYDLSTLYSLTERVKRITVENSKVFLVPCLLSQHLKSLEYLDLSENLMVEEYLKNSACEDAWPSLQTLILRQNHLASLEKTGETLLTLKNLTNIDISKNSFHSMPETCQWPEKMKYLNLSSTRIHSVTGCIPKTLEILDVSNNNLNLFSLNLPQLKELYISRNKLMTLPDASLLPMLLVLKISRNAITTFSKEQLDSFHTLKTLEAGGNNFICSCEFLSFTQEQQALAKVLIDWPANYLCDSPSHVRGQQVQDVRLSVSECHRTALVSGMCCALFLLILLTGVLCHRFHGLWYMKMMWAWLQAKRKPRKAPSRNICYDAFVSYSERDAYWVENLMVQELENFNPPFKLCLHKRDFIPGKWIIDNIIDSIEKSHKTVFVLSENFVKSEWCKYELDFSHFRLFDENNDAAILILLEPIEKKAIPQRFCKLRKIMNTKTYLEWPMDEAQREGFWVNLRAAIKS

TLR2 [2] = molecular target: T1, TLR2; parameters: host or cells: monocytes and epithelial cells; conditions: cited from earlier work
Target sequence in this assay (O60603 21-784, species assumed): as the sequence (O60603 21-784) above

[3] = molecular target: human TLR2 (293.hTLR2 cells) (Homo sapiens, UniProt O60603); test: Biopanning of pentameric random peptide phage display library, sequencing of enriched clones; assay type: binding; conditions: percentage of all clones sequenced (n = 109) having given peptide sequence; after 4 rounds of biopanning, TLRlo parental HEK293, TLRhi 293.hTLR2; peptides with identity to known microbial proteins
Procedure: Screening of phage display libraries by biopanning: Phage display libraries are screened for peptide TLR ligands according to the following procedure. The phage display library is incubated on an in vitro cultured monolayer of cells that express minimal amounts of the TLR of interest (TLR^lo) in order to reduce non-specific binding, and then transferred to an in vitro suspension culture of cells expressing the relevant TLR (TLR^hi) to capture phage with binding specificity for the target TLR. After several washes with PBS to remove phage remaining unbound to the TLR^hi cells, TLR^hi cell-bound phages are harvested by centrifugation. The TLR^hi cells with bound phage are incubated with E. coli (strain BLT5615) in order to amplify the phage. This process is repeated three or more times to yield a phage population enriched for high affinity binding to the target TLR.
In each round of biopanning, the harvested phage that are bound to TLR^hi cells can be titred prior to amplification, amplified, and then titred again prior to initiation of the next cycle of biopanning. In this way, it is possible to determine the percent (%) of input phage in each cycle that are ultimately harvested from the TLR^hi cells. This calculation provides a round-by-round measure of enrichment within the phage display library for phage that display TLR-binding peptides.
Construction of random peptide libraries (RPL): A pentameric random peptide phage display library of T7SELECT phage was constructed essentially as described in Example 2. A pair of phosphorylated oligonucleotides with the sequence NNBNNBNNBNNBNNB (where N=A/G/C/T, B=G/C/T) flanked at the 5′ and 3′ ends by EcoRI and HindIII sites, respectively, was synthesized. Equimolar amounts of the oligonucleotides were annealed by heating for 5 min at 90° C. with gradual cooling to 25° C. The double stranded DNA was ligated to T7Select 10-3 bacteriophage vector (Novagen) that had been previously digested with EcoRI and HindIII. The ligation reactions were packaged in vitro and titred using the host E. coli strain […] that was grown in M9TB (Novagen), generating 2.5×10^7 clones, representing about 75% coverage of the library. The recombinant phage were subjected to several rounds of amplification to generate a total library of 1.35×10^12 phage, ensuring representation in excess of 5×10^4 fold for each clone in the library.
Sequencing of phage inserts: Individual phage clones from the enriched pool are isolated via plaque formation in E. coli. The DNA inserts of individual phage are amplified in PCR using the commercially available primers T7SelectUP (5′-GGAGCTGTCGTATTCCAGTC-3′; SEQ ID NO: 37; Novagen, catalog #70005) and T7SelectDOWN (5′-AACCCCTCAAGACCCGTTTA-3′; SEQ ID NO: 38; Novagen, catalog #70006). The PCR product DNA is purified using the QIAquick 96 PCR Purification Kit (Qiagen) and subjected to DNA sequencing using T7SelectUP and T7SelectDOWN primers.
We constructed a pentameric random peptide phage display library in T7 phage. This phage library was then screened by biopanning as described in Example 3. For this screen, the TLR^lo cells were parental HEK293 (TLR2^−) cells, and the TLR^hi cells were HEK293 cells ectopically expressing human TLR2 (293.hTLR2, see Example 1, above). Phage bound to 293.hTLR2 cells were harvested, titred, and amplified prior to initiation of the each cycle of panning. In this way, it was possible to determine the % of input phage in each cycle that was ultimately harvested from the TLR2^hi cells.
After 4 rounds of biopanning, individual phage clones from the enriched pool were isolated via plaque formation in E. coli. […] phage clones were randomly picked for sequencing. Of the 109 individual clones examined the motif DPDSG was predominant (see Tables 6 and 7). […]

human TLR5 = molecular target: T2, human TLR5 (human, UniProt O60602 21-858); test: fliC-phage incubated on 293 and 293.hTLR5 cells; NF-κB luciferase read-out
T2 construct: Expressed ectopically on HEK293 cells from the bought Invivogen plasmid pUNO-hTLR5 (293.hTLR5); also called hTLR5
T2 sequence (O60602 21-858 limits assumed): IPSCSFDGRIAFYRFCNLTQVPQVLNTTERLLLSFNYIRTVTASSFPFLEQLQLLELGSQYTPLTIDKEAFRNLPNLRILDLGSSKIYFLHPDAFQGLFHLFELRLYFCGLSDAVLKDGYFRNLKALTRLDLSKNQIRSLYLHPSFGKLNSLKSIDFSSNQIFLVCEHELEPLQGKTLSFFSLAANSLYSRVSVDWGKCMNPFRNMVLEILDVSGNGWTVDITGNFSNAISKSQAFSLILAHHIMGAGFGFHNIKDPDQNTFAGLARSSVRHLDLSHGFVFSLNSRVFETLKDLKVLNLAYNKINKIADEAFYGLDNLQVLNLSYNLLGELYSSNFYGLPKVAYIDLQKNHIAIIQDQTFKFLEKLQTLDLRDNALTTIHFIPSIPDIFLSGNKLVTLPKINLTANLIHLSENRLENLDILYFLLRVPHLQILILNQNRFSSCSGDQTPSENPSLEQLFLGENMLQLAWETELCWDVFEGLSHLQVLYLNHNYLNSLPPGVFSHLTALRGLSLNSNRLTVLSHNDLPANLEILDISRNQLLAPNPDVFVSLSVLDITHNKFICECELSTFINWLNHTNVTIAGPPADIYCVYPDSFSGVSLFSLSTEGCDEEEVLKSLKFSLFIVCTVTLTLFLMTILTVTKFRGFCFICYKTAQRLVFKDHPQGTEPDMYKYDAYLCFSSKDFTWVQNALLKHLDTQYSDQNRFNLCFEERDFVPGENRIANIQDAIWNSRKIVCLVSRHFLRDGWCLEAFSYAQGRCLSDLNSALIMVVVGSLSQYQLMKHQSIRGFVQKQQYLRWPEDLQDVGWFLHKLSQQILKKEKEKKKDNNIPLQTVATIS

Chain of human TLR2 (293.hTLR2 cells) (O60603 21-784): as the sequence (O60603 21-784) above

(DPDSG)5 (DPDSGDPDSGDPDSGDPDSGDPDSG) [concatemerized copy of the DPDSG motif, solid phase synthesis]
NF-κB-dependent luciferase reporter gene expression (TLR2 [1]): activated luciferase reporter gene expression in a TLR2-dependent manner

ALTTE (PEPTIDEALTTE) [pentapeptide derived from fimbrial subunit protein, known TLR2 ligand]
activation of monocytes and epithelial cells via TLR2 signaling (TLR2 [2]; Ogawa et al. 1995, 2002, Asai et al. 2001): activate monocytes and epithelial cells via TLR2 signaling

DPDSG [peptide TLR2 ligand; also made as synthetic monomer]
% Abundance [3]: 46.8%
NF-κB-dependent luciferase reporter gene expression (TLR2 [1]): activated luciferase reporter gene expression in a TLR2-dependent manner

GLTTE (PEPTIDEGLTTE) [A to G substitution variant of ALTTE]
antagonism of the wild-type peptide and full-length fimbrial protein (TLR2 [2]; single amino acid substitution (A to G), Ogawa et al. 1995): antagonize the activity of the wild-type peptide and full-length protein

B1: T7 phage displaying the E. coli flagellin (fliC) protein (ligand)
chain: MAQVINTNSLSLITQNNINKNQSALSSSIERLSSGLRINSAKDDAAGQAIANRFTSNIKGLTQAARNANDGISVAQTTEGALSEINNNLQRVRELTVQATTGTNSESDLSSIQDEIKSRLDEIDRVSGQTQFNGVNVLAKNGSMKIQVGANDNQTITIDLKQIDAKTLGLDGFSVKNNDTVTTSAPVTAFGATTTNNIKLTGITLSTEAATDTGGTNPASIEGVYTDNGNDYYAKITGGDNDGKYYAVTVANDGTVTMATGATANATVTDANTTKATTITSGGTPVQIDNTAGSATANLGAVSLVKLQDSKGNDTDTYALKDTNGNLYAADVNETTGAVSVKTITYTDSSGAASSPTAVKLGGDDGKTEVVDIDGKTYDSADLNGGNLQTGLTAGGEALTAVANGKTTDPLKALDDAIASVDKFRSSLGAVQNRLDSAVTNLNNTTTNLSEAQSRIQDADYATEVSNMSKAQIIQQAGNSVLAKANQVPQQVLSLLQG
notes: also called fliC phage; recombinant fliC-phage
binding result (human TLR5): binds
